In PMC10451225:
Values joined by “and” are separate entries in the source; they are usually repeats but may differ in a detail not shown here. Equal values may be shown once. Each block holds one substance with its values, some of them ahead of it.

Key:
[1] = target: SoxR Cys116Ser, Strep-tagged (Hyphomicrobium denitrificans); experiment: SEC; Superdex 75 Increase 10/300 GL, calibrated with mass standards; 50 mM Tris-HCl, pH 8.0, 150 mM NaCl; 0.8 mL/min; self-association of SoxR
[2] = target: Hyphomicrobium denitrificans SoxR, Strep-tagged wild type (Hyphomicrobium denitrificans); experiment: as above
[3] = target: SoxR Cys50Ser, Strep-tagged (Hyphomicrobium denitrificans); experiment: as above
[4] = target: SoxR Cys50Ser Cys116Ser, Strep-tagged (Hyphomicrobium denitrificans); experiment: as above
[5] = target: T1, SoxR (Hyphomicrobium denitrificans) (UniProt D8JT35); experiment: EMSA; conditions: EMSA: 10 mM Tris-HCl pH 8.0, 50 mM KCl, 1 mM DTT, about 7% glycerol, 17 nM DNA, 15 ul; 20 min at room temperature, then 30 min at 30 C with DNA; 6% native gel …
T1 sequence: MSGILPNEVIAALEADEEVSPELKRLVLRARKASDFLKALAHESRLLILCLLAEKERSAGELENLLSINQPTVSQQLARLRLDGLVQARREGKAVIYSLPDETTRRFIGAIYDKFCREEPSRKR

Substance: Hyphomicrobium denitrificans SoxR, Strep-tagged wild type (natural protein)
stoichiometry N [2]: 2 and 4

Substance: GGGTCACCAAATTCTGCAGGTCTCAATGCGAATGCGAGGCTGCTCCAGCTAGACGAAAAACAAGGAACGTTGCAATAGATAATTCACATATGATAATTTTCATATGTGTTATAGGATGAACGTTATCGCAGCTTCCGGGAGAGATGGCGTGAT (double strand) [soxA-soxY intergenic fragment, 151 bp]
binding [5]: binds

More lines, now with the values ahead:

stoichiometry N [1]: 2 and 4
Substance: SoxR Cys116Ser, Strep-tagged (natural protein)

stoichiometry N [3]: 2 and 4
Substance: SoxR Cys50Ser, Strep-tagged (natural protein)

stoichiometry N [4]: 2 and 4
Substance: SoxR Cys50Ser Cys116Ser, Strep-tagged (natural protein)
